The values that follow come from article PMC4836315.

The target of assay [1] is PRRSV nsp11 mutant F76A, pET-30a (+) construct (PRRSV strain WUH3).
The target in assay [2] is PRRSV nsp11 mutant G1A (PRRSV strain WUH3). As to the kind of experiment: SEC; data not shown; Superdex 75 10/300 GL under the same buffer conditions (20 mM Tris-HCl pH 7.4, 200 mM NaCl), 1 mg protein.
In assay [3] the target is PRRSV nsp11 mutant G137A (PRRSV strain WUH3). The description is as above.
In assay [4] the target is PRRSV nsp11 mutant G138A (PRRSV strain WUH3). Described as above.
Assay [5] addresses PRRSV nsp11 mutant K173A, pET-42b (+) construct with C-terminal His6 tag (PRRSV strain WUH3). As to the kind of experiment: SEC; Superdex 75 10/300 GL, 20 mM Tris-HCl pH 7.4, 200 mM NaCl, 0.6 ml/min, 4°C, 1 mg protein; masses from a calibration curve; fractions checked by SDS-PAGE.
Assay [6] shares this target. Kind of assay: AUC; sedimentation velocity, 45,000 rpm, 18°C, 280 nm, c(s) distribution with Sedfit.
The target in assay [7] is PRRSV nsp11 mutant F76A made on the K173A template. Kind of assay: sedimentation velocity analytical ultracentrifugation (AUC).
Assay [8] addresses PRRSV nsp11 mutant R153A made on the K173A template. The assay is described as above.
The target in assay [9] is PRRSV nsp11 mutant S74A made on the K173A template. Described as above.
Assay [10] concerns the target PRRSV nsp11 mutant L54A (PRRSV strain WUH3). As to the kind of experiment: SEC; data not shown; Superdex 75 10/300 GL under the same buffer conditions (20 mM Tris-HCl pH 7.4, 200 mM NaCl), 1 mg protein.
The target of assay [11] is PRRSV nsp11 mutant R55A (PRRSV strain WUH3). The description is as above.
For assay [12], the target named is PRRSV nsp11 mutant S74A, pET-30a (+) construct (PRRSV strain WUH3).
Assay [13] addresses PRRSV nsp11 mutant S166A (PRRSV strain WUH3). As to the kind of experiment: SEC; data not shown; Superdex 75 10/300 GL under the same buffer conditions (20 mM Tris-HCl pH 7.4, 200 mM NaCl), 1 mg protein. (SEC sorts molecules by how far they enter the pores of the column.)
For assay [14], the target named is PRRSV nsp11 mutant V165A (PRRSV strain WUH3). Described as above.
The target in assay [15] is PRRSV nsp11 mutant Y69A (PRRSV strain WUH3). Described as above.
The mark [16] stands for this setting: parent: 4.396 (dimer species, 86.67%), 2.614 (monomer species, 14.04%).
The mark [17] stands for this setting: parent: 63.7 (dimer species, 86.67%), 29.2 (monomer species, 14.04%).

In turn, “PRRSV nsp11 mutant F76A, pET-30a (+) construct (enzyme)” returned an endoribonuclease activity (FRET assay, 2 μM enzyme, 1 μM fluorescent RNA substrate, 25°C), against wild-type nsp11 (fold less than wild type) in [1] of over 4.

For the substance PRRSV nsp11 mutant G1A (enzyme), the stoichiometry N – broadly, the number of molecules, sites or subunits per partner or assembly – in assay [2] was found to be 2.

PRRSV nsp11 mutant G137A (enzyme): the stoichiometry N in [3] was found to be 2.

Substance PRRSV nsp11 mutant G138A (enzyme) displayed a stoichiometry N in assay [4] of 2.

In assay [5], “PRRSV nsp11 mutant K173A, pET-42b (+) construct with C-terminal His6 tag (enzyme)” returned a stoichiometry N of 2. Also, in [6], the percent dimer is 86.7% and the percent monomer amounted to 14%.

As to “PRRSV nsp11 mutant K173A, pET-42b (+) construct with C-terminal His6 tag F76A”, the other: sedimentation coefficient S20,W in assay [7] (setting [16]) was 3.07 S. In assay [7] (setting [17]), the other: calculated molecular weight (MW) from AUC is 37.8.

As for “PRRSV nsp11 mutant K173A, pET-42b (+) construct with C-terminal His6 tag R153A”, the other: sedimentation coefficient S20,W in assay [8] (setting [16]) was 3.4 S. Moreover, the other: calculated molecular weight (MW) from AUC in assay [8] (setting [17]) was 40.7.

“PRRSV nsp11 mutant K173A, pET-42b (+) construct with C-terminal His6 tag S74A”: the other: sedimentation coefficient S20,W in assay [9] (setting [16]) turned out to be 3.32 S. In addition, in assay [9] (setting [17]), the other: calculated molecular weight (MW) from AUC was 50.2.

PRRSV nsp11 mutant L54A (enzyme) showed a stoichiometry N in assay [10] of 2.

Consider PRRSV nsp11 mutant R55A (enzyme), for which the stoichiometry N in assay [11] is 2.

Take “PRRSV nsp11 mutant S74A, pET-30a (+) construct (enzyme)”: the endoribonuclease activity (FRET assay, 2 μM enzyme, 1 μM fluorescent RNA substrate, 25°C), against wild-type nsp11 (fold less than wild type) in assay [12] was over 4.

In turn, PRRSV nsp11 mutant S166A (enzyme) yielded a stoichiometry N in assay [13] of 2.

Substance PRRSV nsp11 mutant V165A (enzyme) came in with a stoichiometry N in [14] of 2.

Substance PRRSV nsp11 mutant Y69A (enzyme) returned a stoichiometry N in assay [15] of 2.
